The series deals with T1, His6-BrxR-R17A (Escherichia fergusonii (plasmid pEFER), UniProt B7L3Y3 14-308, R30A).
T1 sequence: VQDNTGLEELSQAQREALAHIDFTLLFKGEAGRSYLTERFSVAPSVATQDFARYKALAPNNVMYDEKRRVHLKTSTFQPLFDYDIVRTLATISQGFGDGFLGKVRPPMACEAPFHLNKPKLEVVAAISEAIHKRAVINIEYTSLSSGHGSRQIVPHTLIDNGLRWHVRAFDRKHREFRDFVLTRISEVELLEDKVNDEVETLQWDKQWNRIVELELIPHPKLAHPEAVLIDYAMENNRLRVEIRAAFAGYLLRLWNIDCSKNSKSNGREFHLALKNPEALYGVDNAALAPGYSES
The experiment in a line: EMSA; only non-specific binding at high protein; EMSA: 10 mM Tris-HCl pH 7.9, 150 mM KCl, 0.5 mM EDTA, 0.2 mM DTT, 0.1% Triton X-100, 13% glycerol (1x of 5x buffer), 1 ug poly(dI-dC) per 10 ul, 2500 fmol probe, 25 C 30 min; 7% native PAGE in 0.5x TBE. The following applies: protein: recombinant; tags: N-terminal His6; chain copies: 2; label: 5' 6-FAM on reverse strand (primer TRB1068); blunt. (In EMSA bound probe runs differently from free probe, usually more slowly.)

B1: WT IR1-IR2 probe (R7, R-BOX1) (dsDNA)
DNA 1: GACGACTTGTTGATACTATGAAACCTACTGAAAAACAGTAGGTTGCTTGATGGCATTCAATCGATGGCTTAAGCTTTTGTCAGTGCGCA
DNA 2: TGCGCACTGACAAAAGCTTAAGCCATCGATTGAATGCCATCAAGCAACCTACTGTTTTTCAGTAGGTTTCATAGTATCAACAAGTCGTC
Turning to B1, the binding result is on record as “no binding”.
